3 molecules from patent US20240116985A1 (published 2024) can be followed below.

Starred links: 1 amine or outer side, 2 acyl side, 3 side chain; linkers in the order of their positions; H or OH if unused. Positions of bridges follow the written chain, without caps; N, C: chain ends. Non-standard residues stand in square brackets, D forms with d. Primed or numbered codes have the meaning given here. *: point of attachment. B5(10) = 2-amino-2-(pent-4-en-1-yl)hept-6-enoic acid, bis(4-pentenyl)glycine, stitching residue bearing both staples, C=CCCCC(CCCC=C)(N[*:1])C(=O)[*:2]; B5(5) = 2,2-bis(4-pentenyl)glycine, 2-amino-2-(pent-4-en-1-yl)hept-6-enoic acid (stitching residue), C=CCCCC(CCCC=C)(N[*:1])C(=O)[*:2]; PyrS2 = (S)-3-amino-1-((pent-4-en-1-yloxy)carbonyl)pyrrolidine-3-carboxylic acid, C=CCCCOC(=O)N1CC[C@@](N[*:1])(C(=O)[*:2])C1; Bta = N[C@@H](Cc1csc2ccccc12)C(=O)O; αAllylPro = C=CC[C@@]1(C(=O)O)CCCN1; S8 = C=CCCCCCC[C@](C)(N)C(=O)O; Ms = CS(=O)(=O)*

For assay [1], the target named is T1, full-length beta-Catenin (Uniprot ID P35222) (Homo sapiens (Human), UniProt P35222 1-781).
T1 construct: also called bCat
T1 sequence: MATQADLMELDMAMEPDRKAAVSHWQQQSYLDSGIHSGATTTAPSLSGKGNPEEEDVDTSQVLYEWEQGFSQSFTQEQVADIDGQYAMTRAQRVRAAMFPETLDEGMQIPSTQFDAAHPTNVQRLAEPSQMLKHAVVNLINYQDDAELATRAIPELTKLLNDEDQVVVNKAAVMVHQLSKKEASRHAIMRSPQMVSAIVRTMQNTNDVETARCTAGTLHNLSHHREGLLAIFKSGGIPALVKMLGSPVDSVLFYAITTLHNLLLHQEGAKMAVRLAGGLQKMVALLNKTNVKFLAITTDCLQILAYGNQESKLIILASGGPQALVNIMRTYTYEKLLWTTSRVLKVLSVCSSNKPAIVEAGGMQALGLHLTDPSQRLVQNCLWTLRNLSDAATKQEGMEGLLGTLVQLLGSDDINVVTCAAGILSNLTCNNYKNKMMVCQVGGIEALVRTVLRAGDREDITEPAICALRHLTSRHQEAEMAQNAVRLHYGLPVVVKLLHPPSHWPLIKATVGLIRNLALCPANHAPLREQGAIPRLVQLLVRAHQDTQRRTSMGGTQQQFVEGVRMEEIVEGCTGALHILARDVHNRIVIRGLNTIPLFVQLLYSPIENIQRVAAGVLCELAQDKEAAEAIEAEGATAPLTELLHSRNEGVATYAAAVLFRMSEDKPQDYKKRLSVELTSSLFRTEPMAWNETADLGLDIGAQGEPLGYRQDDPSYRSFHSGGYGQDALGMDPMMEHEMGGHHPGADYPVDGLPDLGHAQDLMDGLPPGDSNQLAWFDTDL
Nature of the assay: fluorescence polarization competition against 5FAM-TCF4(10-53) on full-length beta-catenin. As to the method:
(§1) The plate was incubated protected from light for 60 minutes at 20° C. prior to read. Reads were performed on a CLARIOstar plate reader (BMG Labtech) in duplicate, and data were fitted to a 1:1 binding model with hill slope using an in-house script. All provided concentrations are final concentrations.

Assay [2] has as its target T2, full-length beta-Catenin (Uniprot ID P35222) (Homo sapiens (Human), UniProt P35222 2-781).
T2 construct: The fluorescence polarization protocol says only 'full-length'; also called bCat; B-Catenin
T2 sequence: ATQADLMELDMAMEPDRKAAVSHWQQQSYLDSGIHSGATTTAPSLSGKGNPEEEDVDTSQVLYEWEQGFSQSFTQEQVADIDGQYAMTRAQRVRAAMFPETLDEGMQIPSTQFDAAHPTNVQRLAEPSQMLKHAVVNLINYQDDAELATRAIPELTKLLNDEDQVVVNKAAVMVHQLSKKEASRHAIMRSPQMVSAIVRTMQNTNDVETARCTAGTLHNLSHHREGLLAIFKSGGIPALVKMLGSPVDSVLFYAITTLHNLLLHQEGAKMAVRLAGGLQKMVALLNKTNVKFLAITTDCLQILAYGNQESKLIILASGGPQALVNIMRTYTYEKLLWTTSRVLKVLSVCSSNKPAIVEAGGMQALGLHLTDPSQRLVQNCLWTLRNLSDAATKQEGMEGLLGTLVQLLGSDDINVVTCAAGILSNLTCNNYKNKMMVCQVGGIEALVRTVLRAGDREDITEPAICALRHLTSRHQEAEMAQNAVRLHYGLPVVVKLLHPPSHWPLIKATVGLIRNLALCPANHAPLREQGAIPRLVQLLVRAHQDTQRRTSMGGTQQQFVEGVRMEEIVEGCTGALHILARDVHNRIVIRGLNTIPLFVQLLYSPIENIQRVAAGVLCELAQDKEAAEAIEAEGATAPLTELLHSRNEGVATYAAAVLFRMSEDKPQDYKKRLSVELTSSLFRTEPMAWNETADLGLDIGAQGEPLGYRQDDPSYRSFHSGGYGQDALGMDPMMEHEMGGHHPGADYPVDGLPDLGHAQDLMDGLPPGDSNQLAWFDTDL
Nature of the assay: fluorescence polarization competition; full-length beta-catenin + 5FAM-TCF4(10-53) probe; peptide titrated. As to the method:
as §1

For assay [3], the target named is T3, full-length beta-Catenin (Uniprot ID P35222) (Homo sapiens (Human), UniProt P35222 2-781).
T3 construct: The FP protocol says 'full-length beta-Catenin (Uniprot ID P35222)'; also called bCat; B-Catenin
T3 sequence: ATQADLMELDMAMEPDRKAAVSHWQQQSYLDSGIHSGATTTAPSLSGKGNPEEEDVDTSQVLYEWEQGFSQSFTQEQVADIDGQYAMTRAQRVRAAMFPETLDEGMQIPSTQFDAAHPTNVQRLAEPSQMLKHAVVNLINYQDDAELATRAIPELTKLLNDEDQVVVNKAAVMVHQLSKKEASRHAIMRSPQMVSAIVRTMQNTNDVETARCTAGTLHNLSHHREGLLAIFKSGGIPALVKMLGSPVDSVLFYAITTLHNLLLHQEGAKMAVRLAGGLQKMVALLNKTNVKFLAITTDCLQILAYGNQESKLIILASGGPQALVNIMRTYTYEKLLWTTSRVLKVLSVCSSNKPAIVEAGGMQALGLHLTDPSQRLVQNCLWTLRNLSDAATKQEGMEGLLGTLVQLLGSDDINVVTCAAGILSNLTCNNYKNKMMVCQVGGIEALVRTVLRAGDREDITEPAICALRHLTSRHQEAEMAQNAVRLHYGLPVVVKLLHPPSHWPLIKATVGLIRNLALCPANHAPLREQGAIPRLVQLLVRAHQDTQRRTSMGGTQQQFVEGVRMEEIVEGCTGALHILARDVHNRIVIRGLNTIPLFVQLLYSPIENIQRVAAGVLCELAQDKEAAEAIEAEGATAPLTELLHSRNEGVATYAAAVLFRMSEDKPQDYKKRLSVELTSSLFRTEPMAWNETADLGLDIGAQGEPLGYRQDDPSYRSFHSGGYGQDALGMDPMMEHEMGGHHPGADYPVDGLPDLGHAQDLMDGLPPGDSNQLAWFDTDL
The assay can be described thus: fluorescence polarization competition; full-length beta-catenin + 5FAM-TCF4 10-53 probe. The method, then:
as §1
(In fluorescence polarisation assays a small probe gives low polarisation when free and higher when bound to something large.)

B1: I-1287 (peptide)
peptide: Ac-[αAllylPro]NA[B5(10)]DTAAFL[PyrS2]F[Bta]Q-NH2
modifications: staple 1-4, 4-11; not fully specified; printed as Ac-PL3-Asn-Ala-B5-Asp-Thr-Ala-Ala-Phe-Leu-PyrS2-Phe-BztA-Gln-NH2
notes: Stapled peptide
In general, IC50 refers to the concentration that inhibits the measured activity by half. Molecule B1 came in with an IC50 in assay [1] of 10 µM.

B2: I-710 (peptide)
peptide: Ms-[αAllylPro]DI[B5(5)]DEAAFQ[S8]F[Bta]Q-NH2
modifications: staple 1-4, 4-11
notes: Stapled peptide composition; also called MeSO2-PL3-Asp-Ile-B5-Asp-Glu-Ala-Ala-Phe-Gln-S8-Phe-BztA-Gln-NH2
As a reminder, the EC50 is the midpoint of the concentration-response curve. In the case of B2, in assay [2], the EC50 worked out at 0.073 µM.

B3: I-1295 (peptide)
peptide: Ac-[αAllylPro]DA[B5(10)]NTAAFL[PyrS2]F[Bta]Q-NH2
modifications: staple 1-4, 4-11; not fully specified; printed as Ac-PL3-Asp-Ala-B5-Asn-Thr-Ala-Ala-Phe-Leu-PyrS2-Phe-BztA-Gln-NH2
notes: earlier eluting HPLC peak (staple isomer composition); also called Ac-PL3-Asp-Ala-B5-Asn-Thr-Ala-Ala-Phe-Leu-PyrS2-Phe-BztA-Gln-NH2
Regarding B3, in assay [3], the IC50 stood at 10 µM.
